Laboratory results reported in article PMC11570840.

Key:
[1] = target: β2-adrenergic receptor C terminally fused with RlucII (β2AR-RlucII) (UniProt P07550); assay: FRET or BRET; live HEK293 cells co-transfected with donor β2AR-RlucII and acceptor NES-Venus-mGs, -mGsi or -mGsq; 48 h after transfection stimulated 20 min with increasing concentrations of ISO; 5 μM coelenterazine H in PBS; data as % of maximal ISO-induced mGs recruitment
[2] = target: β2-adrenergic receptor C terminally fused with RlucII (β2AR-RlucII) (UniProt P07550); assay: FRET or BRET; live HEK293 cells co-transfected with donor β2AR-RlucII and acceptor NES-Venus-mGsq; stimulated 20 min with increasing concentrations of ISO, epinephrine, norepinephrine or formoterol; data as % of maximal ISO-induced mGsq recruitment

Row | Substance | efficacy of ISO-induced recruitment, % of mGs [1] [%] | efficacy of recruitment with epinephrine, % of ISO [2] [%] | efficacy of recruitment with formoterol, % of ISO [2] [%] | efficacy of recruitment with norepinephrine, % of ISO [2] [%]
1 | NES-Venus-mGsi (mini G protein mGsi) | 60 |  |  | 
2 | NES-Venus-mGsq (mini G protein mGsq) | 20 | 60 | 80 | 40
